Patent US20210171647A1 (WUXI BIOLOGICS SHANGHAI, published 2021)

Key:
[1] = molecular target: T1, human OX40, full-length, on cells (human, UniProt P43489 29-277); assay: FACS, transfected 293F cells, antibody 1 ug/mL
T1 construct: whole, on cells; also called hPro1; cell surface human OX40
T1 sequence (looked up): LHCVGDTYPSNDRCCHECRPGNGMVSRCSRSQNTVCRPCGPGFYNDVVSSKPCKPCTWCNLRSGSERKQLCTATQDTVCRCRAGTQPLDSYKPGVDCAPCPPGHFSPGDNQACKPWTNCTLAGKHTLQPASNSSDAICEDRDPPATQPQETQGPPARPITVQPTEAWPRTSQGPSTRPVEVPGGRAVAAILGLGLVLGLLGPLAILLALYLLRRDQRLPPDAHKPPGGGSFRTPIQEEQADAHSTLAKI
Method: (§1) Binding of antibodies to chimeric OX40 variants was analyzed by flow cytometry. […] Cells were analyzed using flow cytometer.

[2] = molecular target: T2, mouse OX40 (mPro1) on transfected 293F cells (mouse, UniProt P47741 20-272); assay: FACS, transfected 293F cells, antibody 1 ug/mL
T2 construct: whole, on cells
T2 sequence (looked up): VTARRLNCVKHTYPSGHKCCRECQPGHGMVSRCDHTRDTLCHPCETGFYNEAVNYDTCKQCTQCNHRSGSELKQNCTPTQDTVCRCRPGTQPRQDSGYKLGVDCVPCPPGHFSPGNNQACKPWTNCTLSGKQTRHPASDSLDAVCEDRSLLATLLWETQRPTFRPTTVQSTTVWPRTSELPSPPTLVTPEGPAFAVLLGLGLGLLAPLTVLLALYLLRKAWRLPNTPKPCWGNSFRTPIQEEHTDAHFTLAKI
Method: as §1

[3] = molecular target: T1, human OX40, full-length, on cells; assay: flow cytometry on activated human CD4+ T cells
Method: Briefly, human OX40-expressing CHO-K1 cells or activated human CD4⁺ T cells were transferred into 96-well U-bottom plates (Corning) at a density of 1×10⁵ cells/well. Testing antibodies were serially diluted in wash buffer (1×PBS/1% BSA) and incubated with cells at 4° C. for 1 h. After washing with 1×PBS/1% BSA, the secondary antibody goat anti-human IgG Fc-PE (Jackson ImmunoResearch Lab) was applied and incubated with cells at 4° C. in the dark for 1 h. The cells were then washed and resuspended in 1×PBS/1% BSA or fixed with 4% paraformaldehyde, and then analyzed by flow cytometry (BD).

[4] = molecular target: T1, human OX40, full-length, on cells; assay: flow cytometry on human OX40 transfected CHO-K1 cells
Method: (§2) CHO-K 1 cells expressing human OX40 were transferred in to 96-well U-bottom plates (Corning) at a density of 5×10⁴ cells/mL. Testing antibodies were 1:2 serially diluted in wash buffer (1×PBS/1% BSA) and incubated with cells at 4° C. for 1 h. The secondary antibody goat anti-human IgG Fc FITC (3.2 moles FITC per mole IgG, Jackson Immunoresearch Lab) was added and incubated with cells at 4° C. in the dark for half an hour. The cells were then washed once, resuspended in 1×PBS/1% BSA and analyzed by flow cytometry (BD). Fluorescence intensity was converted to bound molecules/cell based on the quantitative beads Quantum™ MESF Kits (Bangs Laboratories, Inc.). The KD value of each antibody was calculated using Graphpad Prism5.

[5] = molecular target: T1, human OX40, full-length, on cells; assay: flow cytometry, CHO-K1 cells expressing human OX40, MESF beads
Method: as §2

human CD40 ECD = molecular target: T3, human CD40 ECD (human, UniProt P25942 21-193); assay: ELISA on coated ECD, one antibody concentration (not given)
T3 construct: extracellular domain

human 4-1BB (CD137) ECD = molecular target: T4, human 4-1BB (CD137) ECD (human, UniProt Q07011 24-186); assay: as above
T4 construct: extracellular domain
Method: (§3) Human OX40, CD40, 4-1BB (CD137) and CD271 ECD were coated on plates (Nunc) overnight at 4° C. After blocking and washing, testing antibodies were diluted in blocking buffer and added to the plates and incubated at room temperature for 1 h. The plates were then washed and subsequently incubated with secondary antibody goat anti-human IgG Fc-HRP (Bethyl) for 1 h. After washing, TMB substrate was added and the interaction was stopped by 2M HCl.

human CD271 ECD = molecular target: T5, human CD271 ECD (human, UniProt P08138 29-250); assay: as above
T5 construct: extracellular domain
T5 sequence (looked up): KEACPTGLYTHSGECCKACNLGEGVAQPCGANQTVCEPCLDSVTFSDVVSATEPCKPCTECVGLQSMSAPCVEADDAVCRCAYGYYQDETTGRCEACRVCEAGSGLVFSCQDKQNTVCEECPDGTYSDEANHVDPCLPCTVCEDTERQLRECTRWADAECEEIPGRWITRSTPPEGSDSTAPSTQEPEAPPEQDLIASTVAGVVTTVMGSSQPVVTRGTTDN
Method: as §3

T4 sequence (Q07011 24-186): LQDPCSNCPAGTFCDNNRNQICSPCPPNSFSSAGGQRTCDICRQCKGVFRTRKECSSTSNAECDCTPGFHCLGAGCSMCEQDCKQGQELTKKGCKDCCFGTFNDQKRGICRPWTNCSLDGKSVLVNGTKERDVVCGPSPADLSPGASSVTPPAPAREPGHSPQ
T3 sequence (P25942 21-193): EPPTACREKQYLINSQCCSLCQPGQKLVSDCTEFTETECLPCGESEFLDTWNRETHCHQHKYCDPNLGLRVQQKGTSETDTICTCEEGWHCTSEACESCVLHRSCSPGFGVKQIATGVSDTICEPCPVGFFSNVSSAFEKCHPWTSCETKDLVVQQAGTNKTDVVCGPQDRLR

- MFI [1]: 9160
- PE + % [1]: 85.2%
- MFI [2]: 44.4
- PE + % [2]: 0.937%
- EC50 (read off the curve) [3]: 1 to 2 nM
- EC50 (read off the curve) [4]: ~1 nM
- Kd [5]: 0.53 nM
- binding result (human CD40 ECD): no binding
- binding result (human 4-1BB (CD137) ECD): no binding
- binding result (human CD271 ECD): no binding
B1: 1.134.9-u1-IgG1L (antibody, V domains shown)
VH: QVQLQESGPGLVKPSGTLSLTCAVSGGSISSYNWWSWVRQPPGKGLEWIGEIYHGGNTNYNPSLKSRVTMSVDNSKNQFSLKLSSVTAADTAVYYCARAPGDWGGSPYFDFWGQGTLVTVSS
VL: SSELTQDPAVSVALGQTVRITCQGDNLRTYYASWYQQKPGQAPILLIYGRNKRPSGIPDRFSGSSSGNTASLTITGAQAEDEAAYYCNSRDSSGNPVVFGGGTKLTVL
notes: fully human IgG1, lambda
